Source: patent publication US20250002610A1 (Genmab, published 2025)

B1: BisG1-FAPα-FERL/DR4-FERR (bispecific antibody, human IgG1, kappa, lambda)
heavy 1: EVQLLESGGGLVQPGGSPRLSCEASGFTFSSYALSWVRQAPGKGLEWVSAISGSGGGRYYADSVKGRFTISRDNSKNTLFLQMNSLRAEDTAVYYCAKEGYSSSGTYWDHWGQGTLVTVSSASTKGPSVFPLAPSSKSTSGGTAALGCLVKDYFPEPVTVSWNSGALTSGVHTFPAVLQSSGLYSLSSVVTVPSSSLGTQTYICNVNHKPSNTKVDKRVEPKSCDKTHTCPPCPAPEFERGPSVFLFPPKPKDTLMISRTPEVTCVVVDVSHEDPEVKFNWYVDGVEVHNAKTKPREEQYNSTYRVVSVLTVLHQDWLNGKEYKCKVSNKALPAPIEKTISKAKGQPREPQVYTLPPSREEMTKNQVSLTCLVKGFYPSDIAVEWESNGQPENNYKTTPPVLDSDGSFLLYSKLTVDKSRWQQGNVFSCSVMHEALHNHYTQKSLSLSPG
light 1: AIQMTQSPSSVSASVGDRVTITCRASQGVSSWLAWYQQKPGRAPKLLIYVASTLQSGVPSRFSGSGSGTDFTLTINSLQPEDFATYYCQQANSFPPTFGQGTRLEMKRTVAAPSVFIFPPSDEQLKSGTASVVCLLNNFYPREAKVQWKVDNALQSGNSQESVTEQDSKDSTYSLSSTLTLSKADYEKHKVYACEVTHQGLSSPVTKSFNRGEC
heavy 2: QVQLQESGPGLVKPSGTLSLTCAVSGGSISSYSWWSWIRQPPGKGLEWIGELYHSGSTNYNPSLKSRVTISVDKSKNQFSLKLRSVTAADTAVYYCVRGVATIDYWGQGTLVTVSSASTKGPSVFPLAPSSKSTSGGTAALGCLVKDYFPEPVTVSWNSGALTSGVHTFPAVLQSSGLYSLSSVVTVPSSSLGTQTYICNVNHKPSNTKVDKRVEPKSCDKTHTCPPCPAPEFERGPSVFLFPPKPKDTLMISRTPEVTCVVVDVSHEDPEVKFNWYVDGVEVHNAKTKPREEQYNSTYRVVSVLTVLHQDWLNGKEYKCKVSNKALPAPIEKTISKAKGQPREPQVYTLPPSREEMTKNQVSLTCLVKGFYPSDIAVEWESNGQPENNYKTTPPVLDSDGSFFLYSRLTVDKSRWQQGNVFSCSVMHEALHNHYTQKSLSLSPG
light 2: QSALTQPPSASGSPGQSVTISCTGTSSDVGGYNFVSWYQQDPGKAPKLLIYEVTKRPSGVPDRFSGSKSGNTASLTVSGLQAEDEADYYCSSYAGSNNVMFGGGTKLTVLGQPKAAPSVTLFPPSSEELQANKATLVCLISDFYPGAVTVAWKADSSPVKAGVETTTPSKQSNNKYAASSYLSLTPEQWKSHRSYSCQVTHEGSTVEKTVAPTECS
notes: Human IgG1 bispecific made by controlled Fab-arm exchange of IgG1-FAPα-FERL and IgG1-DR4-FERR; monovalent for FAPα and for DR4; also called GEN1057
B2: IgG1-DR4-FERR (antibody, V domains shown)
VH: QVQLQESGPGLVKPSGTLSLTCAVSGGSISSYSWWSWIRQPPGKGLEWIGELYHSGSTNYNPSLKSRVTISVDKSKNQFSLKLRSVTAADTAVYYCVRGVATIDYWGQGTLVTVSS
VL: QSALTQPPSASGSPGQSVTISCTGTSSDVGGYNFVSWYQQDPGKAPKLLIYEVTKRPSGVPDRFSGSKSGNTASLTVSGLQAEDEADYYCSSYAGSNNVMFGGGTKLTVLG
notes: Bivalent monoclonal IgG1 lambda

Key:
[1] = molecular target: T1, human DR4 (Death Receptor 4), cell surface expressed on human tumor cell lines (human, UniProt O00220 24-468); experiment: flow cytometry on MDA-MB-231 cells (endogenous DR4), antibody incubated at 37 °C, gMFI PE
T1 construct: also called TNFRSF10A; TRAIL-R1
T1 sequence: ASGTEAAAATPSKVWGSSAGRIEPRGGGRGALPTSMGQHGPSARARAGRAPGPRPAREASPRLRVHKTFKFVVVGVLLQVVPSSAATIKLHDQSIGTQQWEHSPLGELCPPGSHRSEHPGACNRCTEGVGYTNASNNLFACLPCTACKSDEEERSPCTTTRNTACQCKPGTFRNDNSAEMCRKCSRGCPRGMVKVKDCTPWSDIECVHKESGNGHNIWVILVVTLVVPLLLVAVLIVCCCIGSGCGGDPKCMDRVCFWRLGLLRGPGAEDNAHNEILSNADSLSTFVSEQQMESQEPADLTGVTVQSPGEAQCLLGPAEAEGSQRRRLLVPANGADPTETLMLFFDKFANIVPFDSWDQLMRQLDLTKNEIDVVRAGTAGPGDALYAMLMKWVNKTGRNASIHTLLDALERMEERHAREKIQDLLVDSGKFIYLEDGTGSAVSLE
Experimental: Binding of C1q to membrane-bound BisG1-FAPα-FERL/DR4-FERR was assessed by flow cytometry. MDA-MB-231 cells were harvested as described in Example 3, plated (50,000 cells/well) in round-bottom 96-well plates and incubated with a concentration range of BisG1-FAPα-FERL/DR4-FERR or IgG1-b12-FER control antibody (0.003-30 μg/mL in threefold increments) at 37° C. for 30 min. To assess C1q binding, normal human serum (NHS) (Sanquin, final concentration 20%) was added as a source of C1q and the mixture was incubated at 4° C. for 45 min. Cells were washed twice with FACS buffer (PBS [Lonza, Cat. #BE17-517Q] supplemented with 0.1% [w/v] BSA [Roche, Cat. #10735086001] and 0.02% [w/v] sodium azide [NaN3; bioWORLD, Cat. #41920044-3]) and subsequently incubated with FITC-conjugated rabbit anti-human C1q antibody (DAKO, Cat. #F0254; 1:100 in FACS buffer) at 4° C. for 30 min, protected from light. Within the same experiment, binding of the DR4-antibodies to the MDA-MB-231 cells was confirmed in parallel samples after the incubation with serial dilutions of the tested antibodies.

[2] = molecular target: T2, cynomolgus monkey DR4 with death domain deletion on ExpiCHO-S cells (cynomolgus monkey (Macaca fascicularis)); experiment: flow cytometry on ExpiCHO-S cells transiently expressing cynomolgus monkey DR4 (death domain deleted), gMFI PE
T2 construct: also called cynomolgus DR4
T2 chain: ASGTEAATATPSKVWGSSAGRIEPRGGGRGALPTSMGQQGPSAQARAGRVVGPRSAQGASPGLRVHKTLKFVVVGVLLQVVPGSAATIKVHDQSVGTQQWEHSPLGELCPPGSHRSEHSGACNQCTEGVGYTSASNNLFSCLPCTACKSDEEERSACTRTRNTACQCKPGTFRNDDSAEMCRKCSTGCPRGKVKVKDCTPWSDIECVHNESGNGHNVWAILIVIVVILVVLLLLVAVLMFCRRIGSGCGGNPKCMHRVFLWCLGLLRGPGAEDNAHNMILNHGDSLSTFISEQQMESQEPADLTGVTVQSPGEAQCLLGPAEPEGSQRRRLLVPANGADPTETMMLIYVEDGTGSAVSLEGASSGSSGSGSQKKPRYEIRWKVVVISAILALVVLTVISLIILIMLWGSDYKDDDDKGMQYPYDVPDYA

[3] = molecular target: T1, human DR4 (Death Receptor 4), cell …; experiment: flow cytometry, HCT-15 cells, average ± SEM; HCT-15 cells, average of n = 3

Binder	EC50 (read off the curve) [1] [µg/mL]	EC50 (read off the curve) [2] [µg/mL]	EC50 [3] [µg/mL]
B1	~0.5	~1	
B2			0.17
